Data published in publication PMC3588017, “Measurement of the Interaction Between Recombinant I-domain from Integrin alpha 2 beta 1 and a Triple Helical Collagen Peptide with the GFOGER Binding Motif Using Molecular Force Spectroscopy” (International Journal of Molecular Sciences, 2013).

Tests used:
[1] = biological target: GFOGER peptide, synthetic triple helical collagen related peptide GPC[GPP]5GFOGER[GPP]5GPCG; assay: dynamic force spectroscopy (AFM); as a1, repeated over a range of loading rates; most dominant peak force against loading rate fitted with the Bell-Evans model; koff at zero applied force; conditions: both partners purified
[2] = biological target: GPP peptide, synthetic triple helical control peptide GPC[GPP]10GPCG; assay: as above; conditions: both partners purified

B1: I-domain from integrin alpha 2 beta 1, locked open I-domain cleaved of its GST tag (CLOI) (domain or fragment)
chain: CPSLIDVVVVCDESNSIYPWDAVKNFLEKFVQGLDIGPTKTQVGLIQYANNPRVVFNLNTYKTKEEMIVATSQTSQYGGDLTNTFGAIQYARKYAYSAASGGRRSATKVMVVVTDGESHDGSMLKAVIDQCNHDNILRFGIAVLGYLNRNALDTKNLIKEIKAIASIPTERYFFNVSDEAALLEKAGTLGEQIFSIEG
koff [1]: 0.44 s⁻¹
koff [2]: 11 s⁻¹
